The text below walks through data of US12576141B2 (AlbuNext, LLC, priority 2023, dated 2026).

One data set has as its target GLP-1 receptor (Homo sapiens, UniProt P43220). The settings on record: cited from earlier work.
For data set [1] the following is noted: suitable for once weekly dosing; cited from earlier work.
For data set [2] the following is noted: monotherapy, cited from earlier work.
For a further data set, the target named is T1, Cys34 of rat albumin (Rattus norvegicus, UniProt P02770).
T1 construct: plasma samples collected from the rats that were injected s.c. and i.v; from tissue; host or cells: rat plasma (in vivo, circulating albumin)
Briefly: electrophoresis of plasma samples from injected rats (translocation to rat albumin). It is filed as in vivo. Here is the method: To further investigate the apparent inconsistencies supplementary electrophoresis experiments were conducted on the plasma samples collected from the rats that were injected s.c. and i.v. as noted above, and exemplary results are depicted in FIG. 30. As can be readily seen in the gel image, when conformationally unmodified AB-013 is tested in an electrophoresis experiment only one band is observed in the area where an albumin-exendin-4 MPA covalent construct would be observed. Completely unexpectedly, all time points taken during the experiment, including the earliest ones, had two bands in the area related to an albumin-exendin-4 MPA covalent construct.
This initial observation was further supported when a dynorphin-A-MPA peptide was injected intravenously to rats. Importantly, this dynorphin-A-MPA peptide was not conjugated to human albumin or any other type of albumin. […] In a similar fashion, the dynorphin-A-MPA peptide was also conjugated to human conformationally unmodified albumin in vitro to form a covalent bond between it and the Cys34 of human albumin. The dynorphin a human albumin covalent construct was injected intravenously to rats.

T1 sequence (P02770 25-608): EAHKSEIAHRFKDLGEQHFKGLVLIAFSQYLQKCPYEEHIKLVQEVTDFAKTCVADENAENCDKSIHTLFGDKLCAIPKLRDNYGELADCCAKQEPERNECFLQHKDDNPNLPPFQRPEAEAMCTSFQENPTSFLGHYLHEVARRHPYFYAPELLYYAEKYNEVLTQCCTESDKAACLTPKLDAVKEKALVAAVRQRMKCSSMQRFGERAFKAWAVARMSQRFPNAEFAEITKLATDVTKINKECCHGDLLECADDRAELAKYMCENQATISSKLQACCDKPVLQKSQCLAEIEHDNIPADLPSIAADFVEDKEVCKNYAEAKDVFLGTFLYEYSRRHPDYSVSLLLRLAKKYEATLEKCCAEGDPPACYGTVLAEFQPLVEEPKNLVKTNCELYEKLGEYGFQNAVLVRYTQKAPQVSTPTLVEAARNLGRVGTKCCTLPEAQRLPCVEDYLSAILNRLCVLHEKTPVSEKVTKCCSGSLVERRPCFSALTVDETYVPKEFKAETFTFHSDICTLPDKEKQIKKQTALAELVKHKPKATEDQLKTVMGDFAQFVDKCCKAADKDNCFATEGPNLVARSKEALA
GLP-1 receptor, sequence (P43220 24-463, species assumed): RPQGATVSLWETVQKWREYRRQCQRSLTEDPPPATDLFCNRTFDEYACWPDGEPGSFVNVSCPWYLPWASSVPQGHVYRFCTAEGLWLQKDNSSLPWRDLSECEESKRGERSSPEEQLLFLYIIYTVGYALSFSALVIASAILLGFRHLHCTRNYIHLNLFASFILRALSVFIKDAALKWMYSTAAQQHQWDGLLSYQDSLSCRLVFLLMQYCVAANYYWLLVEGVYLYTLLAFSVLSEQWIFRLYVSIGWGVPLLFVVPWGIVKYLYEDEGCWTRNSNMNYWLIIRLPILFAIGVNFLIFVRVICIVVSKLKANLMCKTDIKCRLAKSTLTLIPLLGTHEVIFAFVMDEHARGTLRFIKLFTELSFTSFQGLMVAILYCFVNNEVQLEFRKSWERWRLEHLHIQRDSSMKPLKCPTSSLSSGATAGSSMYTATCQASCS

Consider “albiglutide: albumin fusion protein in which a tandem repeat of Gly8 GLP-1 is fused to N-terminus of human serum albumin”, for which the GLP-1 receptor affinity with GLP-1 receptor is listed as 20 nM. In data set [1], the half-life is 140 to 190 h. In addition, the “decrease in HbA1c from baseline” value in data set [2] (30 mg weekly dose, week 52) is given as −0.7%. Moreover, in data set [2] (50 mg weekly dose), the “change from baseline of HbA1c” value is listed as −0.9%.
For the substance “dynorphin-A-MPA peptide: dynorphin-A-MPA peptide not conjugated to any albumin, injected for in vivo bioconjugation”, the “bands on electrophoresis gel in the area of the albumin covalent construct” value with Cys34 of rat albumin (rat plasma, all time points) was “only one band”. In addition, the “bioconjugation in vivo with rat albumin” value with Cys34 of rat albumin (rats, intravenous, peptide not conjugated to albumin) was “did indeed occur”.

By half-life is commonly meant how long it takes for the measured level to halve.
